Results taken from paper PMC9482650, “Quantitative fragmentomics allow affinity mapping of interactomes” (Nature Communications, 2022).

T1: APBA1_2, Q02410
T1 sequence (Q02410 742-832, limits assumed, looked up): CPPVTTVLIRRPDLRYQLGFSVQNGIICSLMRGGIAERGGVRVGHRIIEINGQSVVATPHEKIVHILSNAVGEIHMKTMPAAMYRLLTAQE

T2: CARD11, Q9BXL7
T2 sequence (Q9BXL7 662-765, limits assumed, looked up): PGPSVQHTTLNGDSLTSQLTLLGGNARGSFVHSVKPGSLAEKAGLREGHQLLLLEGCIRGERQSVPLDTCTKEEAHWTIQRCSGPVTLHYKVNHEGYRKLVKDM

T3: LRRC7, Q96NW7
T3 sequence (Q96NW7 1440-1537, limits assumed, looked up): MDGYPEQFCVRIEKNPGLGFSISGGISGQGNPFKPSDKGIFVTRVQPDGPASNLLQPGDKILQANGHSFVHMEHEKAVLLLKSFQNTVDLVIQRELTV

T4: MPP6, Q9NZW5
T4 sequence (Q9NZW5 125-219, limits assumed, looked up): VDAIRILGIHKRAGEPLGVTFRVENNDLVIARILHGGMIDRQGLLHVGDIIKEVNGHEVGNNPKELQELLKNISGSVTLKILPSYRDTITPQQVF

T5: NHERF3_1, Q5T2W1
T5 sequence (Q5T2W1 4-100, limits assumed, looked up): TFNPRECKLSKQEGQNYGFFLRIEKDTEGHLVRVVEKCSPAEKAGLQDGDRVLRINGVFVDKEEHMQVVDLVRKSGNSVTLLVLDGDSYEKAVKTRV

T6: NHERF3_3, Q5T2W1
T6 sequence (Q5T2W1 238-333, limits assumed, looked up): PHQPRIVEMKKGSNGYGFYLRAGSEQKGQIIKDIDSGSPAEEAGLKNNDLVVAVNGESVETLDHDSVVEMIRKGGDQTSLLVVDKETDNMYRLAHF

T7: PARD3B_1, Q8TEW8
T7 sequence (Q8TEW8 196-299, limits assumed, looked up): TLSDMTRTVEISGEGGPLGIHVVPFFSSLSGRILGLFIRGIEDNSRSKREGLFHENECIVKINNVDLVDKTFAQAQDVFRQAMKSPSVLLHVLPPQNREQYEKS

T8: SNTG1, Q9NSN8
T8 sequence (Q9NSN8 52-150, limits assumed, looked up): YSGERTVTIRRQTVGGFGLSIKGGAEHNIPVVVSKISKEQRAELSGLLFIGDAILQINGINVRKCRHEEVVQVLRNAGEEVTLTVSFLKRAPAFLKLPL

T9: SNTG2, Q9NY99
T9 sequence (Q9NY99 68-166, limits assumed, looked up): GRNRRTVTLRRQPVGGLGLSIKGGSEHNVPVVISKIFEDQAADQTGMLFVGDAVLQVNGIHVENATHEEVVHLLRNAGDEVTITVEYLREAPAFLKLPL


These binders were tested against AHNAK1, Q09666 (assay: holdup assay). Settings: plain residues with an end cap or a label only (N-terminal biotin on a linker: ado-ado).
Chain of AHNAK1, Q09666 (Q09666 4-100): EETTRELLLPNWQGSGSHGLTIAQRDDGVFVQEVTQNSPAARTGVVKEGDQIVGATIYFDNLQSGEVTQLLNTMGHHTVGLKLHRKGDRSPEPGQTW
Design: key: below the threshold = too weak to quantify, mostly under pKd 3.1 to 4

Row | pKd | Binder
1 | below the threshold | GDSSRKEYFI [GYPC, P04921]
2 | below the threshold | PSVYSRSQYV [CLDN8, P56748]

What follows are binders tested against T1, APBA1_2, Q02410 (assay: holdup assay). Settings: plain residues with an end cap or a label only (N-terminal biotin on a linker: ado-ado).
Design: key: below the threshold = too weak to quantify, mostly under pKd 3.1 to 4

Row | pKd | Binder
3 | 3.73 | GDSSRKEYFI [GYPC, P04921]
4 | 3.92 | PSVYSRSQYV [CLDN8, P56748]

The binders below were run against T2, CARD11, Q9BXL7 (assay: holdup assay). Settings: plain residues with an end cap or a label only (N-terminal biotin on a linker: ado-ado).
Design: key: below the threshold = too weak to quantify, mostly under pKd 3.1 to 4

Row | pKd | Binder
5 | below the threshold | GDSSRKEYFI [GYPC, P04921]
6 | below the threshold | PSVYSRSQYV [CLDN8, P56748]

Each binder was assayed against DLG1_3, Q12959 (assay: holdup assay). Settings: plain residues with an end cap or a label only (N-terminal biotin on a linker: ado-ado).
Chain of DLG1_3, Q12959 (Q12959 457-571): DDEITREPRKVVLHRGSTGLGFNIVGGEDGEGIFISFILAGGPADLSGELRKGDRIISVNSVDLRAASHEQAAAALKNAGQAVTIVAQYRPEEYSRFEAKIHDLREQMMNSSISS
Design: key: below the threshold = too weak to quantify, mostly under pKd 3.1 to 4

Row | pKd | Binder
7 | below the threshold | GDSSRKEYFI [GYPC, P04921]
8 | below the threshold | PSVYSRSQYV [CLDN8, P56748]

These binders were tested against DLG2_2, Q15700 (assay: holdup assay). Settings: plain residues with an end cap or a label only (N-terminal biotin on a linker: ado-ado).
Chain of DLG2_2, Q15700 (Q15700 189-283): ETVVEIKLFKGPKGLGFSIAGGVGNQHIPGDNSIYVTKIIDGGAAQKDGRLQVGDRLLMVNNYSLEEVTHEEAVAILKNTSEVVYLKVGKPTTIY
Design: key: below the threshold = too weak to quantify, mostly under pKd 3.1 to 4

Row | pKd | Binder
9 | below the threshold | GDSSRKEYFI [GYPC, P04921]
10 | below the threshold | PSVYSRSQYV [CLDN8, P56748]

What follows are binders tested against DLG5_1, Q8TDM6 (assay: holdup assay). Settings: plain residues with an end cap or a label only (N-terminal biotin on a linker: ado-ado).
Chain of DLG5_1, Q8TDM6 (Q8TDM6 617-713): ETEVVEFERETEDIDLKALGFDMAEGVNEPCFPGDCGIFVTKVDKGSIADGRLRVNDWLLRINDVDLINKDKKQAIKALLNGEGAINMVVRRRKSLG
Design: key: below the threshold = too weak to quantify, mostly under pKd 3.1 to 4

Row | pKd | Binder
11 | below the threshold | GDSSRKEYFI [GYPC, P04921]
12 | below the threshold | PSVYSRSQYV [CLDN8, P56748]

What follows are binders tested against GRASP, Q7Z6J2 (assay: holdup assay). Settings: plain residues with an end cap or a label only (N-terminal biotin on a linker: ado-ado).
Chain of GRASP, Q7Z6J2 (Q7Z6J2 96-193): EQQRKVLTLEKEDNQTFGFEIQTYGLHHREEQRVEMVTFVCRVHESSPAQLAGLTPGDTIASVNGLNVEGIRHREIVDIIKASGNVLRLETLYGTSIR
Design: key: below the threshold = too weak to quantify, mostly under pKd 3.1 to 4

Row | pKd | Binder
13 | below the threshold | GDSSRKEYFI [GYPC, P04921]
14 | 3.51 | PSVYSRSQYV [CLDN8, P56748]

What follows are binders tested against GRIP2_6, Q9C0E4 (assay: holdup assay). Settings: plain residues with an end cap or a label only (N-terminal biotin on a linker: ado-ado).
Chain of GRIP2_6, Q9C0E4 (Q9C0E4 648-740): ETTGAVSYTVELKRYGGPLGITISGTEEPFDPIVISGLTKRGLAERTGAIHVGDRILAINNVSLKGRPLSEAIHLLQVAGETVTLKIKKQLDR
Design: key: below the threshold = too weak to quantify, mostly under pKd 3.1 to 4

Row | pKd | Binder
15 | 4.67 | GDSSRKEYFI [GYPC, P04921]
16 | 3.48 | PSVYSRSQYV [CLDN8, P56748]

The binders below were run against IL16_1, Q14005 (assay: holdup assay). Settings: plain residues with an end cap or a label only (N-terminal biotin on a linker: ado-ado).
Chain of IL16_1, Q14005 (Q14005 210-306): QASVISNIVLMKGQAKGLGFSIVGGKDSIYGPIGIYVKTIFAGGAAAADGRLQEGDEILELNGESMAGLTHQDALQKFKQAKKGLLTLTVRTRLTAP
Design: key: below the threshold = too weak to quantify, mostly under pKd 3.1 to 4

Row | pKd | Binder
17 | below the threshold | GDSSRKEYFI [GYPC, P04921]
18 | below the threshold | PSVYSRSQYV [CLDN8, P56748]

Each binder was assayed against IL16_4, Q14005 (assay: holdup assay). Settings: plain residues with an end cap or a label only (N-terminal biotin on a linker: ado-ado).
Chain of IL16_4, Q14005 (Q14005 1229-1329): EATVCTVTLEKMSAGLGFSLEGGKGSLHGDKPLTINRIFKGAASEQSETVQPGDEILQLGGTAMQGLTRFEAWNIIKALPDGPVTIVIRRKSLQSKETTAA
Design: key: below the threshold = too weak to quantify, mostly under pKd 3.1 to 4

Row | pKd | Binder
19 | below the threshold | GDSSRKEYFI [GYPC, P04921]
20 | below the threshold | PSVYSRSQYV [CLDN8, P56748]

The binders below were run against Inadl_3, Q8NI35 (assay: holdup assay). Settings: plain residues with an end cap or a label only (N-terminal biotin on a linker: ado-ado).
Chain of Inadl_3, Q8NI35 (Q8NI35 359-469): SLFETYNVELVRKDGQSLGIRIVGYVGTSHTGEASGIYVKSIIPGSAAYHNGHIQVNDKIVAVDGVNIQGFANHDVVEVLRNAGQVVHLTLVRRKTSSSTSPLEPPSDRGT
Design: key: below the threshold = too weak to quantify, mostly under pKd 3.1 to 4

Row | pKd | Binder
21 | 4.2 | GDSSRKEYFI [GYPC, P04921]
22 | below the threshold | PSVYSRSQYV [CLDN8, P56748]

What follows are binders tested against LDB3, O75112 (assay: holdup assay). Settings: plain residues with an end cap or a label only (N-terminal biotin on a linker: ado-ado).
Chain of LDB3, O75112 (O75112 1-94): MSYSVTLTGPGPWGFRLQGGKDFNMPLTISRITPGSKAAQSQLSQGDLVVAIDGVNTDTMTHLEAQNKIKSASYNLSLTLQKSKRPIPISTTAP
Design: key: below the threshold = too weak to quantify, mostly under pKd 3.1 to 4

Row | pKd | Binder
23 | below the threshold | GDSSRKEYFI [GYPC, P04921]
24 | below the threshold | PSVYSRSQYV [CLDN8, P56748]

These binders were tested against LIMK2, P53671 (assay: holdup assay). Settings: plain residues with an end cap or a label only (N-terminal biotin on a linker: ado-ado).
Chain of LIMK2, P53671 (P53671 143-248): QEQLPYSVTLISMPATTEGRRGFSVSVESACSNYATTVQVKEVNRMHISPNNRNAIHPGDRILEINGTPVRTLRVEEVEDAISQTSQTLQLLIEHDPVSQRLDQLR
Design: key: below the threshold = too weak to quantify, mostly under pKd 3.1 to 4

Row | pKd | Binder
25 | below the threshold | GDSSRKEYFI [GYPC, P04921]
26 | below the threshold | PSVYSRSQYV [CLDN8, P56748]

Each binder was assayed against LNX1_1, Q8TBB1 (assay: holdup assay). Settings: plain residues with an end cap or a label only (N-terminal biotin on a linker: ado-ado).
Chain of LNX1_1, Q8TBB1 (Q8TBB1 261-371): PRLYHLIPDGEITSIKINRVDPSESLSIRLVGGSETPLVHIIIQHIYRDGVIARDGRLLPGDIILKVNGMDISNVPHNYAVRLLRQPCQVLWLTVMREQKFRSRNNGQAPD
Design: key: below the threshold = too weak to quantify, mostly under pKd 3.1 to 4

Row | pKd | Binder
27 | below the threshold | GDSSRKEYFI [GYPC, P04921]
28 | below the threshold | PSVYSRSQYV [CLDN8, P56748]

These binders were tested against T3, LRRC7, Q96NW7 (assay: holdup assay). Settings: plain residues with an end cap or a label only (N-terminal biotin on a linker: ado-ado).
Design: key: below the threshold = too weak to quantify, mostly under pKd 3.1 to 4

Row | pKd | Binder
29 | below the threshold | GDSSRKEYFI [GYPC, P04921]
30 | below the threshold | PSVYSRSQYV [CLDN8, P56748]

Each binder was assayed against MAGI2_3, Q86UL8 (assay: holdup assay). Settings: plain residues with an end cap or a label only (N-terminal biotin on a linker: ado-ado).
Chain of MAGI2_3, Q86UL8 (Q86UL8 600-682): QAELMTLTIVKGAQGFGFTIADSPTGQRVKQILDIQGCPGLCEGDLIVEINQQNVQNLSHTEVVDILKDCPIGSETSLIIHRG
Design: key: below the threshold = too weak to quantify, mostly under pKd 3.1 to 4

Row | pKd | Binder
31 | below the threshold | GDSSRKEYFI [GYPC, P04921]
32 | below the threshold | PSVYSRSQYV [CLDN8, P56748]

These binders were tested against T4, MPP6, Q9NZW5 (assay: holdup assay). Settings: plain residues with an end cap or a label only (N-terminal biotin on a linker: ado-ado).
Design: key: below the threshold = too weak to quantify, mostly under pKd 3.1 to 4

Row | pKd | Binder
33 | 4.7 | GDSSRKEYFI [GYPC, P04921]
34 | below the threshold | PSVYSRSQYV [CLDN8, P56748]

These binders were tested against T5, NHERF3_1, Q5T2W1 (assay: holdup assay). Settings: plain residues with an end cap or a label only (N-terminal biotin on a linker: ado-ado).
Design: key: below the threshold = too weak to quantify, mostly under pKd 3.1 to 4

Row | pKd | Binder
35 | 3.69 | GDSSRKEYFI [GYPC, P04921]
36 | 5.34 | PSVYSRSQYV [CLDN8, P56748]

What follows are binders tested against T6, NHERF3_3, Q5T2W1 (assay: holdup assay). Settings: plain residues with an end cap or a label only (N-terminal biotin on a linker: ado-ado).
Design: key: below the threshold = too weak to quantify, mostly under pKd 3.1 to 4

Row | pKd | Binder
37 | below the threshold | GDSSRKEYFI [GYPC, P04921]
38 | below the threshold | PSVYSRSQYV [CLDN8, P56748]

These binders were tested against NHERF4_4, Q86UT5 (assay: holdup assay). Settings: plain residues with an end cap or a label only (N-terminal biotin on a linker: ado-ado).
Chain of NHERF4_4, Q86UT5 (Q86UT5 464-550): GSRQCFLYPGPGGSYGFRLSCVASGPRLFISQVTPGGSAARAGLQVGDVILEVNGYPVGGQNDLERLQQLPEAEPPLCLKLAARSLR
Design: key: below the threshold = too weak to quantify, mostly under pKd 3.1 to 4

Row | pKd | Binder
39 | below the threshold | GDSSRKEYFI [GYPC, P04921]
40 | below the threshold | PSVYSRSQYV [CLDN8, P56748]

The binders below were run against T7, PARD3B_1, Q8TEW8 (assay: holdup assay). Settings: plain residues with an end cap or a label only (N-terminal biotin on a linker: ado-ado).
Design: key: below the threshold = too weak to quantify, mostly under pKd 3.1 to 4

Row | pKd | Binder
41 | 4.39 | GDSSRKEYFI [GYPC, P04921]
42 | 3.58 | PSVYSRSQYV [CLDN8, P56748]

What follows are binders tested against PICK1, Q9NRD5 (assay: holdup assay). Settings: plain residues with an end cap or a label only (N-terminal biotin on a linker: ado-ado).
Chain of PICK1, Q9NRD5 (Q9NRD5 17-115): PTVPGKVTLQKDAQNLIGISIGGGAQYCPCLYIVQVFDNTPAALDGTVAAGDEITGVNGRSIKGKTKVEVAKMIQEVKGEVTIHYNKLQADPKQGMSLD
Design: key: below the threshold = too weak to quantify, mostly under pKd 3.1 to 4

Row | pKd | Binder
43 | below the threshold | GDSSRKEYFI [GYPC, P04921]
44 | below the threshold | PSVYSRSQYV [CLDN8, P56748]

The binders below were run against PTPN3, P26045 (assay: holdup assay). Settings: plain residues with an end cap or a label only (N-terminal biotin on a linker: ado-ado).
Chain of PTPN3, P26045 (P26045 505-587): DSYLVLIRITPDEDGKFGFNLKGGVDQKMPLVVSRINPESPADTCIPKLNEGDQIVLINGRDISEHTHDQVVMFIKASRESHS
Design: key: below the threshold = too weak to quantify, mostly under pKd 3.1 to 4

Row | pKd | Binder
45 | 4.16 | GDSSRKEYFI [GYPC, P04921]
46 | below the threshold | PSVYSRSQYV [CLDN8, P56748]

What follows are binders tested against SCRIB_1, Q14160 (assay: holdup assay). Settings: plain residues with an end cap or a label only (N-terminal biotin on a linker: ado-ado).
Chain of SCRIB_1, Q14160 (Q14160 718-814): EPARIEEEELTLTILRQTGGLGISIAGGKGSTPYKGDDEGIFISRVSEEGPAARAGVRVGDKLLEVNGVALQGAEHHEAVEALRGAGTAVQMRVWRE
Design: key: below the threshold = too weak to quantify, mostly under pKd 3.1 to 4

Row | pKd | Binder
47 | below the threshold | GDSSRKEYFI [GYPC, P04921]
48 | below the threshold | PSVYSRSQYV [CLDN8, P56748]

What follows are binders tested against SCRIB_3, Q14160 (assay: holdup assay). Settings: plain residues with an end cap or a label only (N-terminal biotin on a linker: ado-ado).
Chain of SCRIB_3, Q14160 (Q14160 999-1103): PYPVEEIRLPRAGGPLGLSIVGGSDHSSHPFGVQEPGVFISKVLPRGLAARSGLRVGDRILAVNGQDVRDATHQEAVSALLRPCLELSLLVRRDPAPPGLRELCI
Design: key: below the threshold = too weak to quantify, mostly under pKd 3.1 to 4

Row | pKd | Binder
49 | 4.13 | GDSSRKEYFI [GYPC, P04921]
50 | below the threshold | PSVYSRSQYV [CLDN8, P56748]

These binders were tested against T8, SNTG1, Q9NSN8 (assay: holdup assay). Settings: plain residues with an end cap or a label only (N-terminal biotin on a linker: ado-ado).
Design: key: below the threshold = too weak to quantify, mostly under pKd 3.1 to 4

Row | pKd | Binder
51 | below the threshold | GDSSRKEYFI [GYPC, P04921]
52 | below the threshold | PSVYSRSQYV [CLDN8, P56748]

Each binder was assayed against T9, SNTG2, Q9NY99 (assay: holdup assay). Settings: plain residues with an end cap or a label only (N-terminal biotin on a linker: ado-ado).
Design: key: below the threshold = too weak to quantify, mostly under pKd 3.1 to 4

Row | pKd | Binder
53 | below the threshold | GDSSRKEYFI [GYPC, P04921]
54 | below the threshold | PSVYSRSQYV [CLDN8, P56748]

The binders below were run against TJP1_3, Q07157 (assay: holdup assay). Settings: plain residues with an end cap or a label only (N-terminal biotin on a linker: ado-ado).
Chain of TJP1_3, Q07157 (Q07157 416-512): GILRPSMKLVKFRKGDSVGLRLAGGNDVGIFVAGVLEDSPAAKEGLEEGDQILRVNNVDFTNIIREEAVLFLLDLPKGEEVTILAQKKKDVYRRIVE
Design: key: below the threshold = too weak to quantify, mostly under pKd 3.1 to 4

Row | pKd | Binder
55 | below the threshold | GDSSRKEYFI [GYPC, P04921]
56 | below the threshold | PSVYSRSQYV [CLDN8, P56748]
